Laboratory results reported in PMC7173060 (Journal of Molecular Biology, 2004).

Target: the molecule itself
Experiment: cross-linking

B1: full-length rabies virus phosphoprotein (P), C-terminal His-tagged (natural protein)
chain: MSKIFVNPSAIRAGLADLEMAEETVDLINRNIEDNQAHLQGEPIEVDNLPEDMKRLHLDDEKSSNLGEMVRVGEGKYREDFQMDEGEDPNLLFQSYLDNVGVQIVRQMRSGERFLKIWSQTVEEIVSYVTVNFPNPPRRSSEDKSTQTTGRELKKETTSAFSQRESQPSKARMVAQVAPGPPALEWSATNEEDDLSVEAEIAHQIAESFSKKYKFPSRSSGIFLYNFEQLKMNLDDIVKEAKNVPGVTRLAHDGSKIPLRCVLGWVALANSKKFQLLVEADKLSKIMQDDLNRYTSC
binding result: binds
